Legend:
[1] = target: GST-tagged H. sapiens hinT H112N (human) (UniProt P49773); test: BLI; GST-hinT (90 nM) immobilised on anti-GST biosensors; sucA-AMP 500 to 7.81 nM, unmodified sucA at 500 nM; 10 mM Tris pH 8, 150 mM NaCl, 0.1% Triton X-100; KD from steady-state responses, one site
[2] = target: GST-tagged E. coli hinT H101N (E. coli) (UniProt P0ACE7); test: as above
[3] = target: AMPylated GlnA (glutamine synthetase), recombinant (E. coli) (UniProt P0A9C5); test: cryo-EM structure; GlnA (4.68 mg/ml) mixed with hinT (3.29 mg/ml), 1:3 molar ratio of monomers; 10 mM Tris pH 8, 150 mM NaCl, 2 mM DTT

GST-tagged H. sapiens hinT H112N (human), sequence (P49773 whole entry H112N): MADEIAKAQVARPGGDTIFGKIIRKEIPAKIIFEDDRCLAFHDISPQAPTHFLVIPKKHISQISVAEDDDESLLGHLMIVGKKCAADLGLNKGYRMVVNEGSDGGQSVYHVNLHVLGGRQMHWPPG

A Kd [1] of 10 nM and a Kd [2] of 27 nM were found for “AMPylated sucA (from UniProt P0AFG3 1-933) (enzyme)” in this work.
A stoichiometry N (hinT dimers per GlnA dodecamer) [3] of less than 6 was found for “E. coli hinT H101N (untagged) (from UniProt P0ACE7 1-119) (enzyme)” in this work.

Source: PMC12375108
